Laboratory results reported in PMC10816986, “The Role of Key Amino Acids of the Human Fe(II)/2OG-Dependent Dioxygenase ALKBH3 in Structural Dynamics and Repair Activity toward Methylated DNA” (International Journal of Molecular Sciences, 2024).
Where a chain is given by its changes, count along the chain named. Names and notes keep the numbering of the source.

B1: wt ALKBH3: wild-type human Fe(II)/2OG-dependent dioxygenase ALKBH3 with N-terminal His-tag, expressed in E. coli (protein, UniProt Q96Q83 1-286, looked up)
Alpha-ketoglutarate-dependent …: MEEKRRRARVQGAWAAPVKSQAIAQPATTAKSHLHQKPGQTWKNKEHHLSDREFVFKEPQQVVRRAPEPRVIDREGVYEISLSPTGVSRVCLYPGFVDVKEADWILEQLCQDVPWKQRTGIREDITYQQPRLTAWYGELPYTYSRITMEPNPHWHPVLRTLKNRIEENTGHTFNSLLCNLYRNEKDSVDWHSDDEPSLGRCPIIASLSFGATRTFEMRKKPPPEENGDYTYVERVKIPLDHGTLLIMEGATQADWQHRVPKEYHSREPRVNLTFRTVYPDPRGAPW
modifications: N-terminal His-tag
notes: wild-type human Fe(II)/2OG-dependent dioxygenase ALKBH3 with N-terminal His-tag, expressed in E. coli
B2: L177A ALKBH3: ALKBH3 mutant, Leu177 replaced with Ala (protein, UniProt Q96Q83 1-286, looked up, variant L177A)
Alpha-ketoglutarate-dependent …: B1 Alpha-ketoglutarate-dependent … with L177A
B3: Y143A ALKBH3: ALKBH3 mutant, Tyr143 replaced with Ala (protein, UniProt Q96Q83 1-286, looked up, variant Y143A)
Alpha-ketoglutarate-dependent …: B1 Alpha-ketoglutarate-dependent … with Y143A
B4: Y143F ALKBH3: ALKBH3 mutant, Tyr143 replaced with Phe (protein, UniProt Q96Q83 1-286, looked up, variant Y143F)
Alpha-ketoglutarate-dependent …: B1 Alpha-ketoglutarate-dependent … with Y143F
B5: H191A ALKBH3: ALKBH3 mutant, His191 replaced with Ala (protein, UniProt Q96Q83 1-286, looked up, variant H191A)
Alpha-ketoglutarate-dependent …: B1 Alpha-ketoglutarate-dependent … with H191A

target: not listed separately; test: Equilibrium fluorescence titration with Fe(II); format: binding; conditions: 1 µM apoprotein, 25 °C; read-out: Dissociation constant Kd, Fe(II)
From the text: (§1) To investigate the impact of selected mutations on ALKBH3’s ability to bind its cofactor, co-substrate, and methylated DNA, the fluorescent titration method was employed. It is well-established that enzyme–ligand binding typically leads to a protein conformational change, which in turn can alter the fluorescence intensity of tryptophan and tyrosine residues within the protein sequence. […] In this study, transitional metals (Fe(II), Ni(II), and Co(II)), 2OG, and the m3C substrate served as titrants. Protein fluorescence quenching was measured after the addition of an excess of the ligand to 1 µM of enzyme (Supplementary Figure S2). To determine the equilibrium dissociation constant’s Kd values, the resulting titration curves were analyzed using a non-linear regression algorithm (see Section 4.3 of “Materials and Methods” for details). […] As indicated by the data presented in Table 2, the stability of the wt ALKBH3 apoenzyme’s affinity to various ligands and damaged DNA generally corresponds to the stability of such complexes for AlkB and ALKBH2 enzymes. […] The binding of Ni(II) and Co(II) ions of similar radii was weakened by approximately two-fold. […] This behavior is more characteristic of the bacterial homolog AlkB rather than human ALKBH2 [7].
(§2) The intrinsic tryptophan fluorescence quenching was monitored at the maximum of emission (345 nm, in most cases) using an excitation wavelength of 280 nm, and 5 nm slits. An amount of 2 mM of (NH4)2Fe(SO4)2·6H2O, 2 mM of NiSO4×7H2O, 2 mM of CoSO4·7H2O, 2 mM of 2OG, or 100 µM of m3C substrate was titrated into 1 µM of apoprotein (a free enzyme with no metal or 2OG added) in the presence of 50 mM of HEPES-KOH (pH 7.8), 50 mM of KCl, and 10 mM of MgCl2. When titrating with DNA, the buffer was supplemented with 2 mM of EDTA. The dissociation constant Kd for a model of one-step binding (E + L ↔ EL) was determined using Equations (2)–(5) and a non-linear regression algorithm in the OriginPro 8.1 software (OriginLab Corp., Northampton, MA, USA):(2) Kd=E[L]/[EL] (3) F=f0+f1E+f2[EL] (4) e0=E+[EL] (5) l0=L+[EL] where F is the observed fluorescence intensity at any given ligand (L) concentration; f0 is the background fluorescence; f1 and f2 are partial fluorescence intensities of the free enzyme (E) and enzyme–ligand complex (EL), respectively; e0 and l0 are total concentrations of the enzyme and ligand.
(§3) Figure S2. Equilibrium binding of the wild-type and mutant ALKBH3 proteins to transition metals, 2OG, or m3C-containing DNA. The quenching of the enzyme ﬂuorescence is shown as a function of Fe(II) (A), Ni(II) (B), Co(II) (C), 2OG ( D), and single-stranded m3C substrate (E). The protein concentration was 1 µM. In the course of titration by Fe(II), a sodium ascorbate (1mM) was added to keep the metal in a reduced state. Experimental data points were ﬁtted to a single-site binding mode l (see “Materials and Methods”). Each trace represents the average of three technical […]
(§4) (1 picture or pasted object on this page, not shown here)

B1 and B2 are within error of each other in Kd: 25 ± 2 µM for the first, 24 ± 2 µM for the second.

B3 and B4 are within error of each other in Kd: 25 ± 3 µM for the first, 23 ± 2 µM for the second.

Work on B5 yielded a Kd of 20 ± 2 µM.

target: not listed separately; test: Equilibrium fluorescence titration with Co(II); format: binding; conditions: 1 µM apoprotein, 25 °C; read-out: Dissociation constant Kd, Co(II)
From the text: as §1, §2, §3, §4

Going from B1 to B2, the Kd rises from 52 ± 4 µM to 98 ± 9 µM (1.9-fold).

B3 and B4 are within error of each other in Kd: 44 ± 4 µM for the first, 40 ± 3 µM for the second.

With B5 the Kd was 59 ± 6 µM.

target: m3C substrate; test: Equilibrium fluorescence titration with methylated DNA; format: binding; conditions: 1 µM apoprotein, 2 mM EDTA, 25 °C; read-out: Dissociation constant Kd, m3C substrate
From the text: as §1
The affinity of the active site of ALKBH3 for methylated DNA was studied using the m3C substrate without fluorescent labels (see Section 4). […] The replacement of key amino acids leads to an approximate 1.4-fold weakening of contacts with the DNA substrate for the Y143F mutant, 2.3-fold for Y143A, 2-fold for L177A, and 1.5-fold for H191A. Therefore, the removal of the bulky side chain of Tyr143 dramatically affects the ability of ALKBH3 to bind damaged DNA, while withdrawal of its OH group only slightly weakens protein–DNA interactions.
as §2, §3, §4

First: B1
Second: B2
The Kd of the first is 2-fold lower: 2.8 ± 0.1 µM for the first, 5.7 ± 0.3 µM for the second. The first binds more tightly here.

Going from B3 to B4, the Kd falls from 6.3 ± 0.6 µM to 3.8 ± 0.5 µM (1.7-fold). The second binds more tightly here.

B5 showed a Kd of 4.3 ± 0.3 µM.

same assay, conditions: ratio of Kd for m3C substrate

In the case of B2, the “weakening of contacts with the DNA substrate relative to wt” value is reported as ~2 fold.
For B3, the “weakening of contacts with the DNA substrate relative to wt” value was ~2.3 fold.
For B4, the “weakening of contacts with the DNA substrate relative to wt” value was ~1.4 fold.
In the case of B5, the “weakening of contacts with the DNA substrate relative to wt” value is reported as ~1.5 fold.

test system: not listed separately; test: Far-UV CD spectroscopy, secondary structure content (BeStSel); format: physicochemical; conditions: not given
Protocol: To assess the effect of key amino acid substitution on the ALKBH3’s secondary structure content circular CD spectra of each protein variant in the apo state were recorded in accordance with experimental conditions optimized in our previous study.
The secondary structure content was determined by processing experimental spectra using the […] (BeStSel, Budapest, Hungary) and CDSSTR (DichroWeb, London, UK) algorithms. […] A detailed description of the parameter optimization process for each algorithm is provided in our recent work. The BeStSel package was selected for further analysis as it provides more information regarding the structural organization of the protein. As follows from data summarized in Table 3, antiparallel β-strands predominate in the structure of the wild-type ALKBH3 (37.6%), with a considerable portion existing in right-twisted and relaxed conformations. The protein sequence also contains a significant number of loop motifs (12.6%) and poorly ordered structures (~44.7%), which may constitute the N-terminal domain. Only 5.2% of the amino acid sequence is composed of α-helices. Utilizing the protein architecture and topology prediction feature available in BeStSel, it was established that the obtained CD spectrum belongs (with a probability of 96%) to the class of β-proteins with a sandwich or β-barrel architecture. Such a distribution corresponds to the structure of ALKBH3 determined by X-ray crystallography for a truncated form of the enzyme lacking 69 amino acids from the N-terminus (PDB 2IUW). Specifically, the β7-β14 strands form two antiparallel sheets of a central “jellyroll” fold, which constitutes the catalytically active DSBH domain (Figure 1). Thus, the CD method we selected enabled us to determine the composition of the secondary structure of ALKBH3 with a high degree of precision.
Far-UV CD spectra from 185 to 280 nm were recorded using a J600 spectrometer (Jasco, Tokyo, Japan) in a 0.1 cm path lengths quartz cuvette (Starna Cells, CA, USA). In all cases, the protein sample (~50 nmol) was dialyzed two times against the CD buffer containing 10 mM of Potassium Phosphate (pH 7.8) and 50 mM of (NH4)2SO4. […] Data were corrected for a baseline by subtraction of the buffer spectrum and expressed as mean residue ellipticity [θ] […] To estimate the secondary structures, each spectrum between […] and 250 nm was analyzed by both the DichroWeb and BeStSel online programs using the CDSSTR method.
Figure 5 Far-UV CD spectra of wt (blue), Y143F (yellow), Y143A (green), L177A (red), and H191A (purple) ALKBH3 collected from 0.2 mg/mL protein at 11 °C in the absence of ligands. Each spectrum was measured three times, corrected for background, averaged, and expressed as mean residue ellipticity θ (deg·cm^2·dmol^−1).

First: B2
Second: B3
The “increase in α-helical content over wt ALKBH3” value of the first is lower: 2.7 fold for the first, 3 fold for the second.

For B5, the “increase in α-helical content over wt ALKBH3” value was “up to 3.1 fold”.

same assay, conditions: sum of Table 3 components

For B1, the “α-helices, total” value was 5.2%.
